Legend:
Test in all cases: pull-down binding Z-score (relative to library population); higher = stronger binding
[1] = test system: G-clamp-N3 (biotin conjugate); details: RNA library: Library-1 (pre-miRNA loops + repeats)
Summary of the method: (§1)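 The RNA library, end-labelled with Cy5 or Cy3, was heat-folded in phosphate/NaCl/KCl buffer, and 1 μg was incubated at 25 °C for 60 min with streptavidin beads carrying 100 pmol of biotin-conjugated small molecule. Hot SDS released the bound RNA, which was then hybridised to a DNA barcode microarray for 20 h at 55.5 °C. For scoring binding, signal from beads alone was subtracted, replicate barcoded probes were averaged after discarding the highest and lowest, and each value was turned into a Z-score from the library mean and standard deviation.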

[2] = test system: TO-3-N3 (biotin conjugate); details: RNA library: Library-2
Summary of the method: as §1

[3] = test system: TO-3-N3-2 (biotin conjugate); details: RNA library: Library-2
Summary of the method: as §1

TO-N3 (biotin conjugate) = details: RNA library: Library-2
Summary of the method: as §1

[4] = test system: TO-N3-2 (biotin conjugate); details: RNA library: Library-2
Summary of the method: as §1

Sequence	pull-down binding Z-score [1]	pull-down binding Z-score [2]	pull-down binding Z-score [3]	pull-down binding Z-score (TO-N3 (biotin conjugate))	pull-down binding Z-score [4]
GCUUAUACGUGCCCUUGCU [hsa-mir-8075]	-1.63	-0.186	0.345	0.318	0.504
CAGUAUGAAUGAAUUCAUGAUACUG [hsa-mir-3607]	0.669	-0.768	-0.718	-0.881	-0.531
CUGUUUCUGGUGAAAUAUUCAAACAG [hsa-mir-4433a]	-0.293	0.27	-0.178	-0.0687	0.256
AUCUGAUGUUGAAUACUCUUUAAGU [hsa-mir-1245a]	-1.01	-0.143	-0.281	-0.322	-0.685
CACUCCCGGGAUCCCCAGGGAC [hsa-mir-3176]	-1.23	0.149	-0.144	0.25	0.68
UGCUGUGCUGUGCUGAGCAGGGCUGAGCUG [hsa-mir-4539]	0.347	0.29	0.178	1.07	1.46
GAAGCUGUAAGGUGUUCAGAGGAGCUUU [hsa-mir-30e]	2.63	0.57	0.908	0.977	1.1
CCCAUAAGGGUCGAAUGGG [hsa-mir-4713]	-0.205	0.401	-0.0623	0.272	0.0587
CAGGCUGCUAAACAACAGAACGAGCACUG [hsa-mir-378f]	0.125	-0.22	-0.122	-0.0846	0.421
UAAUAUGCACUAUAAAUAUAUUG [hsa-mir-450a-1]	-0.725	-0.774	-0.431	-1.16	-1.33
GGGCAGGGAGUCAGAGGGGACCGCCC [hsa-mir-4740]	2.09	2.19	1.93	1.98	1.24
GGGGGCAGGCUGCCACCUCCUG [hsa-mir-8089]	-0.161	1.5	0.599	1.89	1.36
CUCCUAUUGAAAAUGAACAGGAG [hsa-mir-873]	-0.315	-0.0676	-0.299	-0.285	-0.875
AGUUUGUGAUAAUGUUUGUCUAUAUAGUUAUGAAUG [hsa-mir-4307]	0.397	-0.811	-0.174	-0.633	-0.531
UCUUCUUGGAGUCAGGAAAA [hsa-mir-320d-2]	-0.411	-0.553	-0.458	-0.663	-0.514
GCCUCGCUUCCUGCCGGCGCGGC [hsa-mir-1538]	-0.287	-0.255	-0.601	-0.389	0.147
GGUGUCAUGCCCCAAGAUAACC [hsa-mir-634]	-0.532	-0.514	-0.28	-0.387	0.0681
UUUGCCUGUAAAAGUAAUGGCAAA [hsa-mir-548d-1]	-0.646	-0.488	-0.105	-0.702	-0.552
UUUCUGUUGUCUGAAAGAAGAGAAA [hsa-mir-526b_518a-1]	0.288	-0.47	-0.214	-0.697	-0.584
CGUUUAGUAGAUGAUUGUGCAUUGUUUCAAAAUG [hsa-mir-224]	-0.24	-0.714	-0.358	-0.502	-0.183

Sequence	pull-down binding Z-score [1]	pull-down binding Z-score [2]	pull-down binding Z-score [3]	pull-down binding Z-score (TO-N3 (biotin conjugate))	pull-down binding Z-score [4]
CGGGGGGGGCCCGGGGACGGCUUGGGCCUGCCUAGUCGG [hsa-mir-1234]	1.65	2.08	1.32	2.73	2.4
ACUAGAUUUGAAUCCAGACCUUUAGU [hsa-mir-5584]	-0.461	0.878	0.3	0.715	-0.111
CAGCCCUGCACUGAAC [hsa-mir-614]	-1.84	0.285	0.00113	0.941	1.39
GUUGGGCAUCCACAGUCUCCCACC [hsa-mir-1911]	-1.43	-0.0617	-0.322	0.206	0.612
CUCUGCUGUGUAAAUAGUUCUGAGUAGU [hsa-mir-454]	-0.424	-0.17	0.0557	0.186	0.574
AUCUGAAUGAUCUCAGC [hsa-mir-626]	-1.32	0.58	0.105	0.677	0.364
UUUUGCCAUUACUUUCAAUGGCAAAA [hsa-mir-548aa-2]	-0.284	0.127	-0.23	-0.176	-1.08
UGUGGCCUUUUUGCCUUUUCUAAAGGCCACAU [hsa-mir-1250]	0.00873	-0.234	-0.241	-0.489	-0.551
GGCGGUGAAGCUCC [hsa-mir-4532]	0.399	-0.22	-0.285	-0.104	0.727
UUGUGAAACACAGGUGUUUUUUAACCUCAC [hsa-mir-6841]	-0.237	0.199	0.0964	0.172	0.257
CGUGCAAGUUUAAGUUUUUGCACG [hsa-mir-4445]	0.55	0.314	-0.0878	0.282	-0.688
CUUUCUGUGACUUUAAAAGUAAG [hsa-mir-302b]	-0.444	-0.538	-0.355	-0.844	-0.999
GAGUUUGGAAUUAAAAUCAAAACC [hsa-mir-181a-1]	-0.118	-0.619	-0.129	-0.398	0.419
CUCUGGUCAGUUGGGAGUCUGAG [hsa-mir-143]	0.448	-0.346	-0.014	-0.0514	0.949
AAGGCCCUUGGGCACCCCAGGCCUU [hsa-mir-5700]	-1.26	0.259	-0.081	0.181	0.656
UUGCUUAAG [hsa-mir-924]	-0.513	0.586	-0.269	0.3	-0.696
CUUAGUAGGUGAUAGCAUGACUGAC [hsa-mir-5002]	1.66	0.324	0.356	0.958	1.16
CUGAGGAAUUUGCUGGGAUAUGUCAG [hsa-mir-584]	0.609	0.181	0.168	0.66	0.799
AACAGGACCUGUGCUCACUGGGGCCUGCA [hsa-mir-6797]	-0.344	0.406	0.298	1.02	1.55
AUAGUUGUGGGGUAGUGAUUUUACCCUGUUCAGGAGAUAACUAU [hsa-let-7f-1]	-0.471	0.676	0.657	0.842	0.224

Sequence	pull-down binding Z-score [1]	pull-down binding Z-score [2]	pull-down binding Z-score [3]	pull-down binding Z-score (TO-N3 (biotin conjugate))	pull-down binding Z-score [4]
CGGGCUGAUUGCGCUAACAGUGGCCCC [hsa-mir-4783]	-0.491	-0.256	-0.117	0.248	1.12
UAAUGCUCUGAAAAUGACUCCAAUCAUUA [hsa-mir-3202-2]	-1.64	-0.685	-0.069	-0.741	-0.457
UAUAGCUACAUCAGUUAUAACUAUAUCAGUUAAA [hsa-mir-5582]	-1.59	1.67	0.447	1.57	0.00457
UUCAGCCUAAAGCAAUGAGAAGCCUCUGAAAGGCUGA [hsa-mir-1827]	-0.0259	-0.198	-0.0588	0.212	0.76
UUUUAAUUUUUUUAAAA [hsa-mir-3606]	-1.03	0.211	-0.175	-0.183	-1.39
AGUUGAACACUUGUUGGGACAACCU [hsa-mir-4421]	-0.336	0.939	0.156	0.971	0.711
UGGACCUCAGGGAAGAGGCUG [hsa-mir-4673]	0.343	-0.608	-0.191	-0.619	-0.855
GGAAUCCUACGUGAGGGACAAUCAUUCAGACCCACGUAGCAGUGUUCU [hsa-mir-1299]	0.0519	0.353	0.392	0.632	0.496
UAGACAAUGGUUUCAUCAUUUCGUCUG [hsa-mir-4427]	-0.055	-0.317	-0.103	-0.379	-0.052
UGAAGCCCCGAGAUGCCUCACGUCUUCA [hsa-mir-6802]	-1.85	0.00057	-0.123	0.243	0.573
GAAAACUUUGGAGAAAAAUUUUC [hsa-mir-4659a]	-0.714	-0.765	-0.258	-1.04	-0.857
GCACCUGUUUGUGAC [hsa-mir-4718]	-1.21	-0.491	-0.276	-0.457	-0.201
AGGAGAAGGUGAGACCAAUGUCCUGGGUGCCACUCCU [hsa-mir-6124]	0.515	-0.524	-0.00463	-0.503	-0.139
UGACUACUUCGAAAAUGGGAAGUAGACA [hsa-mir-7849]	3.04	0.0977	-0.277	0.00324	-0.497
GCUGGUGACAUUGCUAAUUCAUUUCACACCAGC [hsa-mir-4293]	-0.642	-0.991	-0.177	-1.31	-0.912
CCUUCUGCUUACAGGUAUUGGAAGG [hsa-mir-3158-1]	0.832	-0.281	-0.401	-0.371	-0.685
CAGACAAUAUAGCUGAGUUUGUCUG [hsa-mir-215]	-0.604	-0.801	-0.547	-1.24	-1.03
AAGAGGAGGUGGUUGUUUUCCUCCUCUU [hsa-mir-627]	-0.0833	0.432	0.625	0.944	1.15

— the supplement of paper PMC11865577
